# According to patent US20050090448A1 (BAXTER INTERNATIONAL, published 2005):
# Bridges are numbered along the chain shown (N, C = ends). Where no end group is shown, it is not given here.
# Molecular target: complement component C5 in pooled human plasma (human, UniProt P01031 19-1676)
# Assay: cell-based or functional assay
# Sequence of complement component C5 in pooled human plasma (P01031 19-1676 limits assumed): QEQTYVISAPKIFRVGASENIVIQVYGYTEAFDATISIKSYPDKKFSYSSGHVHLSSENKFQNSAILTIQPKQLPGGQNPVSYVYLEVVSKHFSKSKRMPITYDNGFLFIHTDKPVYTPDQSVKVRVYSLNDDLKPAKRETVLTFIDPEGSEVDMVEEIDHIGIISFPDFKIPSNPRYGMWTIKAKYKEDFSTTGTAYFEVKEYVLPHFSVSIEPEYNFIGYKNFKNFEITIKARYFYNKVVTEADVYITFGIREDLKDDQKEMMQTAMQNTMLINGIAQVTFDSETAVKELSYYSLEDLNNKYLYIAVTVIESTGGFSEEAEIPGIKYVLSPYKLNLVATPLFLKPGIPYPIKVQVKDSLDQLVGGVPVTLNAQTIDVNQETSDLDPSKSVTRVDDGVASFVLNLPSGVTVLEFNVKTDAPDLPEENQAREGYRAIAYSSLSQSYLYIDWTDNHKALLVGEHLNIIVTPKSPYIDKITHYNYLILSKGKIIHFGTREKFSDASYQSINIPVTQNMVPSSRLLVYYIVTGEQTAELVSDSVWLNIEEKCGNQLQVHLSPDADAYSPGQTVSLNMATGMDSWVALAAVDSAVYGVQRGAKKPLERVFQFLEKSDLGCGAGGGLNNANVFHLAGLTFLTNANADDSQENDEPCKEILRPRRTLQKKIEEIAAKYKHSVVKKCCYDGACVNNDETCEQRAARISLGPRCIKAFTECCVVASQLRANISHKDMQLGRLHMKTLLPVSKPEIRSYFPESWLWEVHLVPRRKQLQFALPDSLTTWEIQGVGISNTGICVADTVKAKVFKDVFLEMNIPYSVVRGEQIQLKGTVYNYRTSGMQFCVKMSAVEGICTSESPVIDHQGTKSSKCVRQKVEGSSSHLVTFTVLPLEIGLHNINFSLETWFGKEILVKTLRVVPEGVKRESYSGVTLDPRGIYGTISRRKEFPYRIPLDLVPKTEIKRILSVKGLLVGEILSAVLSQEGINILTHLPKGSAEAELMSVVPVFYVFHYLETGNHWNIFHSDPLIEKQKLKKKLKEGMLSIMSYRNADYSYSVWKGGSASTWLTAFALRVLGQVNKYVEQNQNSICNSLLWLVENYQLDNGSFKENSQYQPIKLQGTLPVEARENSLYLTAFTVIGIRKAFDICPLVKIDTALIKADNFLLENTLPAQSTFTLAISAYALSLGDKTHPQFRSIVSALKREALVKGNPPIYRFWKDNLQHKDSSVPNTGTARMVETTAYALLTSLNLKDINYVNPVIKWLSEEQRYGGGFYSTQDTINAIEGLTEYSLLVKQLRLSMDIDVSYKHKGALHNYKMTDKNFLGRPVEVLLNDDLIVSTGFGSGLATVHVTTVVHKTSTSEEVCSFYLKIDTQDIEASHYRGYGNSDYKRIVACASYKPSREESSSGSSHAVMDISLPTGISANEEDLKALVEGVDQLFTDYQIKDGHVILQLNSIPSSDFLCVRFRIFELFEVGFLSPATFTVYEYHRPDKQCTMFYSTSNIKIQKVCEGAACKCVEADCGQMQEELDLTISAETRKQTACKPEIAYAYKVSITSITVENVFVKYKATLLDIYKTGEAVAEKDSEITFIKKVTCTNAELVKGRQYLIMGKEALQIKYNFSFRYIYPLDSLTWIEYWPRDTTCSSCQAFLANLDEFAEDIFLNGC
row,Binder,"IC50 of inhibition of classical pathway hemolysis (antibody sensitized sheep erythrocytes, human plasma) [µM]"
1,DSTWTNFRWEFY [Peptide 8 (SEQ ID NO 8)],5.8
2,TQDNRWEFPLRV [Peptide 13 (SEQ ID NO 13)],29.2
3,SFNDLLWRWEWP [Peptide 7 (SEQ ID NO 7)],48.9
4,SDMCAAPWLCPV (disulfide 4-10 (inferred)) [Peptide 6 (SEQ ID NO 6)],3
